Data from publication PMC9592583.

Biological target: proMbxA (6H-MbxA, non-acylated precursor of the RTX toxin MbxA from Moraxella bovis) (Moraxella bovis)
Experiment: SEC-MALS; proMbxA species of SEC peak 1, 1.3-2.5 mg/ml, 200 ul on Superose 6 Increase 10/300 GL; 50 mM TRIS pH 7.8, 100 mM NaCl, 10 mM CaCl2

Substance: proMbxA (6H-MbxA, non-acylated precursor of the RTX toxin MbxA from Moraxella bovis) (natural protein)
- stoichiometry N: 2
